Key:
Assay in all cases: cell-based or functional assay
human TL1A (in-house) [1] = target: T1, human TL1A (in-house) (human, UniProt O95150 57-251, limits assumed)
T1 sequence: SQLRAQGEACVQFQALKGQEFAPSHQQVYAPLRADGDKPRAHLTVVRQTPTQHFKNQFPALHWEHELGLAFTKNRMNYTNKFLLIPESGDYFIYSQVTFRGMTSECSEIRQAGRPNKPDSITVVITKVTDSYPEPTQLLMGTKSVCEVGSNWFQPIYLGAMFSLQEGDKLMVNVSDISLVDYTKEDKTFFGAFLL

human TL1A (in-house) [2] = target: T1, human TL1A (in-house); remark: listed apart in the source
human TL1A (in-house) [3] = target: T1, human TL1A (in-house); remark: listed apart in the source
human TL1A (in-house) [4] = target: T1, human TL1A (in-house); remark: listed apart in the source
human TL1A (in-house) [5] = target: T1, human TL1A (in-house); remark: listed apart in the source

- EC50, TL1A + IL-12 + IL-18 driven IFNg (Hu PBMCs) (2.45 mg/ml), Donor A, ELN ref 97305-032 (human TL1A (in-house) [1]): 131 pM
- EC50, TL1A + IL-12 + IL-18 driven IFNg (Hu PBMCs) (2.45 mg/ml), Donor A, ELN ref 97305-037 (human TL1A (in-house) [1]): 138 pM
- EC50, TL1A + IL-12 + IL-18 driven IFNg (Hu PBMCs) (2.45 mg/ml), Donor A, ELN ref 97305-040 (human TL1A (in-house) [1]): 167 pM
- EC50, TL1A + IL-12 + IL-18 driven IFNg (Hu PBMCs) (2.45 mg/ml), Donor A, ELN ref 97305-041 (human TL1A (in-house) [1]): 209 pM
- EC50, TL1A + IL-12 + IL-18 driven IFNg (Hu PBMCs) (2.45 mg/ml), Donor A, ELN ref 97305-044 (human TL1A (in-house) [1]): 272 pM
- EC50, TL1A + IL-12 + IL-18 driven IFNg (Hu PBMCs) (2.45 mg/ml), Donor A, ELN ref 97305-047 (human TL1A (in-house) [1]): 95 pM
- EC50, TL1A + IL-12 + IL-18 driven IFNg (Hu PBMCs) (2.45 mg/ml), Donor A, ELN ref 97305-050 (human TL1A (in-house) [1]): 209 pM
- EC50, TL1A + IL-12 + IL-18 driven IFNg (Hu PBMCs) (2.45 mg/ml), Donor A, ELN ref 97305-061 (human TL1A (in-house) [1]): 260 pM
- EC50, TL1A + IL-12 + IL-18 driven IFNg (Hu PBMCs) (2.45 mg/ml), Donor A, ELN ref 99932-005481 (human TL1A (in-house) [1]): 301 pM
- EC50, TL1A + IL-12 + IL-18 driven IFNg (Hu PBMCs) (2.45 mg/ml), Donor B, ELN ref 97305-032 (human TL1A (in-house) [1]): 197 pM
- EC50, TL1A + IL-12 + IL-18 driven IFNg (Hu PBMCs) (2.45 mg/ml), Donor B, ELN ref 97305-037 (human TL1A (in-house) [1]): 289 pM
- EC50, TL1A + IL-12 + IL-18 driven IFNg (Hu PBMCs) (2.45 mg/ml), Donor B, ELN ref 97305-040 (human TL1A (in-house) [1]): 146 pM
- EC50, TL1A + IL-12 + IL-18 driven IFNg (Hu PBMCs) (2.45 mg/ml), Donor B, ELN ref 97305-041 (human TL1A (in-house) [1]): 283 pM
- EC50, TL1A + IL-12 + IL-18 driven IFNg (Hu PBMCs) (2.45 mg/ml), Donor B, ELN ref 97305-044 (human TL1A (in-house) [1]): 211 pM
- EC50, TL1A + IL-12 + IL-18 driven IFNg (Hu PBMCs) (2.45 mg/ml), Donor B, ELN ref 97305-047 (human TL1A (in-house) [1]): 185 pM
- EC50, TL1A + IL-12 + IL-18 driven IFNg (Hu PBMCs) (2.45 mg/ml), Donor B, ELN ref 97305-050 (human TL1A (in-house) [1]): 163 pM
- EC50, TL1A + IL-12 + IL-18 driven IFNg (Hu PBMCs) (2.45 mg/ml), Donor B, ELN ref 97305-061 (human TL1A (in-house) [1]): 152 pM
- EC50, TL1A + IL-12 + IL-18 driven IFNg (Hu PBMCs) (2.45 mg/ml), Donor B, ELN ref 99932-005481 (human TL1A (in-house) [1]): 196 pM
- EC50, TL1A + IL-12 + IL-18 driven IFNg (Hu WB)(2.45 mg/ml), Donor A, ELN ref 97305-029 (human TL1A (in-house) [2]): 320 pM
- EC50, TL1A + IL-12 + IL-18 driven IFNg (Hu WB)(2.45 mg/ml), Donor A, ELN ref 97305-033 (human TL1A (in-house) [2]): 284 pM
- EC50, TL1A + IL-12 + IL-18 driven IFNg (Hu WB)(2.45 mg/ml), Donor B, ELN ref 97305-029 (human TL1A (in-house) [2]): 540 pM
- EC50, TL1A + IL-12 + IL-18 driven IFNg (Hu WB)(2.45 mg/ml), Donor B, ELN ref 97305-033 (human TL1A (in-house) [2]): 108 pM
- EC50, TL1A + IL-12 + IL-18 driven IFNg (Hu Tcells) (5.9 mg/ml), Donor A, ELN ref 99932-004774 (human TL1A (in-house) [3]): 171 pM
- EC50, TL1A + IL-12 + IL-18 driven IFNg (Hu Tcells) (5.9 mg/ml), Donor A, ELN ref 99932-004955 (human TL1A (in-house) [3]): 273 pM
- EC50, TL1A + IL-12 + IL-18 driven IFNg (Hu Tcells) (5.9 mg/ml), Donor B, ELN ref 99932-004774 (human TL1A (in-house) [3]): 243 pM
- EC50, TL1A + IL-12 + IL-18 driven IFNg (Hu Tcells) (5.9 mg/ml), Donor B, ELN ref 99932-004955 (human TL1A (in-house) [3]): 182 pM
- EC50, TL1A + IL-12 + IL-18 driven IFNg (Hu Tcells) (4.8 mg/ml), Donor A, ELN ref 97305-082 (human TL1A (in-house) [4]): 162 pM
- EC50, TL1A + IL-12 + IL-18 driven IFNg (Hu Tcells) (4.8 mg/ml), Donor A, ELN ref 99932-003797 (human TL1A (in-house) [4]): 303 pM
- EC50, TL1A + IL-12 + IL-18 driven IFNg (Hu Tcells) (4.8 mg/ml), Donor A, ELN ref 99932-004083 (human TL1A (in-house) [4]): 270 pM
- EC50, TL1A + IL-12 + IL-18 driven IFNg (Hu Tcells) (4.8 mg/ml), Donor A, ELN ref 99932-004084 (human TL1A (in-house) [4]): 316 pM
- EC50, TL1A + IL-12 + IL-18 driven IFNg (Hu Tcells) (4.8 mg/ml), Donor A, ELN ref 99932-004439 (human TL1A (in-house) [4]): 262 pM
- EC50, TL1A + IL-12 + IL-18 driven IFNg (Hu Tcells) (4.8 mg/ml), Donor A, ELN ref 99932-004774 (human TL1A (in-house) [4]): 177 pM
- EC50, TL1A + IL-12 + IL-18 driven IFNg (Hu Tcells) (4.8 mg/ml), Donor A, ELN ref 99932-004955 (human TL1A (in-house) [4]): 193 pM
- EC50, TL1A + IL-12 + IL-18 driven IFNg (Hu Tcells) (4.8 mg/ml), Donor A, ELN ref 99932-005751 (human TL1A (in-house) [4]): 216 pM
- EC50, TL1A + IL-12 + IL-18 driven IFNg (Hu Tcells) (4.8 mg/ml), Donor B, ELN ref 97305-082 (human TL1A (in-house) [4]): 143 pM
- EC50, TL1A + IL-12 + IL-18 driven IFNg (Hu Tcells) (4.8 mg/ml), Donor B, ELN ref 99932-003797 (human TL1A (in-house) [4]): 361 pM
- EC50, TL1A + IL-12 + IL-18 driven IFNg (Hu Tcells) (4.8 mg/ml), Donor B, ELN ref 99932-004084 (human TL1A (in-house) [4]): 345 pM
- EC50, TL1A + IL-12 + IL-18 driven IFNg (Hu Tcells) (4.8 mg/ml), Donor B, ELN ref 99932-004439 (human TL1A (in-house) [4]): 157 pM
- EC50, TL1A + IL-12 + IL-18 driven IFNg (Hu Tcells) (4.8 mg/ml), Donor B, ELN ref 99932-004774 (human TL1A (in-house) [4]): 267 pM
- EC50, TL1A + IL-12 + IL-18 driven IFNg (Hu Tcells) (4.8 mg/ml), Donor B, ELN ref 99932-004955 (human TL1A (in-house) [4]): 287 pM
- EC50, TL1A + IL-12 + IL-18 driven IFNg (Hu Tcells) (4.8 mg/ml), Donor B, ELN ref 99932-005751 (human TL1A (in-house) [4]): 138 pM
- EC50, TL1A-driven phospho-NFkB in Hu Whole Blood(2.45 mg/ml), CD3+CD4-CD8- T-cells, Donor A, no ELN ref printed in this row (human TL1A (in-house) [5]): 830 pM
B1: TL1A antibody 10A4.F7.2E8 huIgG4 (antibody, V domains shown)
VH: QLQLQESGPGLVKPSETLSLTCTVSGGSISSRSYYWGWIRQPPGKGLEWIGSIYYNGRTYYNPSLKSRVTISVDTSKNQFSLKLSSVTAADTAVYYCAREDYGDYGAFDIWGQGTMVTVSS
VL: AIQLTQSPSSLSASVGDRVTITCRASQGISSALAWYQQKPGKAPKLLIYDASSLESGVPSRFSGSGSGTDFTLTISSLQPEDFATYYCQQFNSYPLTFGGGTKVEIKR

— patent US20190135928A1 (Bristol-Myers Squibb, published 2019)
